According to the supplement of paper PMC10567573:
± gives the standard deviation.

Experiment: protein stability index of a GFP-peptide fusion (GPS, HEK-293T) (PSI 1-6); higher = more stable
Settings: c terminus: a fixed tail appended
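Note: 24-mer peptide tiles fused after GFP, lentivirally expressed, FACS-sorted into six equal bins by GFP/DsRed ratio, decoded by Illumina sequencing, PSI is the read-weighted mean bin number.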

Sequence	protein stability index (treatment: DMSO)	protein stability index (treatment: MLN4924 1 uM, 8 h)
QKEVLPSMRKIVATWMLEVCEEQK [CCND1]	3.01 ± 0.27	3 ± 0.3
TAGDRLTEFRKGAQSLPGPCAAAR [IRX6]	4.01 ± 0.18	4.17 ± 0.58
NARGMGIRSPRPASVATWAIFVHR [CTBP1-DT]	2.16 ± 0.48	2.15 ± 0.37
HLYPADFRFDKPKKSRSPASAEAP [ZNF511]	3.38 ± 0.52	3.83 ± 0.45
GLLEAPGLQPVVFVLFLFAYLVTV [OR3A1]	2.53 ± 0.98	2.61 ± 0.8
VQSYMEHYCNSSTDRRVLLMFLDI [SPACA9]	2.78 ± 0.38	2.71 ± 0.56
QGDPKGEMAATPAGFAQLTHLLMG [HDAC6]	3.1 ± 0.16	3.06 ± 0.14
KAIKQKLWEALCSQGAISEGAQRD [C22orf31]	2.72 ± 0.27	2.85 ± 0.065
FNIFDWLGRSLTAVFMWPGKDSRW [SLC29A1]	2.45 ± 0.79	2.63 ± 0.5
NEYLLNLVATNAHLDHYYQEELPA [FCHSD1]	3.25 ± 0.11	3.27 ± 0.38
VTLLVRGVCYSESQSSASQPRLSY [CLCN6]	2.83 ± 0.41	2.29 ± 0.6
DLDSRTDSDIPEIPPSSDRTPEIL [CDS1]	5.42 ± 0.21	5.51 ± 0.21
EKSIEQTQIKGLKNKPKKMGHIKP [PHTF1]	3.93 ± 0.24	4.21 ± 0.25
TPQHHEKQYAMQRPNDDSLAFLDK [IQUB]	4.53 ± 0.23	4.58 ± 0.17
DEAGGGAEGDSWEEEGFGSSSPVK [WEE1]	5.3 ± 0.068	5.35 ± 0.26
TREAHRESSVPVTPSVPPPASQHS [FBF1]	4.94 ± 0.099	5.07 ± 0.12

Sequence	protein stability index (treatment: DMSO)	protein stability index (treatment: MLN4924 1 uM, 8 h)
IFRSYSRGAQGILLVYDITNRWSF [RAB40C]	2.52 ± 0.7	2.61 ± 0.73
LLQRELMVPGTRHSAVLRDLRSGT [TNXB]	2.43 ± 0.3	2.75 ± 0.28
RLAQVKRKILVLDLDETLIHSHHD [CTDNEP1]	2.41 ± 0.73	2.58 ± 0.36
LPSNLVQYYDDEKKTWKILTIMPY [KLHL14]	2.42 ± 0.33	2.3 ± 0.12
EDSAESRPWRAGVLAEGDNASRSL [PSD2]	5.21 ± 0.18	5.14 ± 0.084
GSLEKALPIIQSNQVSSNSWGIAG [DLC1]	3.35 ± 0.3	3.6 ± 0.2
DTRVYIWDPHNGDILMEFGHLFPP [WSB1]	2.38 ± 0.98	2.42 ± 0.44
KMAVSRHLTRGRKMAHVIAACLYL [BRF1]	2.81 ± 0.37	2.6 ± 0.56
IARDQTKSIVEKIQAKLPGIAKKK [RTN3]	3.8 ± 0.15	3.75 ± 0.32
YVQWSLPFIVFGATGLTSGLLSLL [SLC22A15]	3.27 ± 0.45	2.94 ± 0.68
FQTRQEMTSMSAELKMRAIQAEER [LRRC45]	4.12 ± 0.29	4.48 ± 0.22
ANKYLVEDVLLLNFEEMRALLDSL [KLHL14]	2.34 ± 0.21	2.37 ± 0.19
QKIQFKRETASLKLLPHQPRIVEM [PDZK1]	2.54 ± 0.39	–
DGHRPEWTFYPRFSSNIHTYHVGK [SPATS1]	2.96 ± 0.077	3.01 ± 0.21
TLHPISSEELLSLKYENDYPSVIL [ETS1]	2.55 ± 0.17	2.76 ± 0.23
